This is an account of results in patent US10548981B2, “Silk-based drug delivery system” (TRUSTEES OF TUFTS COLLEGE, priority 2004, dated 2020).

Entries after “also recorded” stand apart in the source; their conditions may differ.

Data set [1] is described as follows: Protein activity after water vapor treatment of drug loaded films. Format: physicochemical. The conditions noted are these: water vapor treatment of drug loaded films at 25° C. over a saturated Na2SO4 solution for 24 hours. The method, then: Conclusion: Drug release from silk films was a function of the drugs molecular weight and film treatment with methanol. […] This decrease of activity was correlated to methanol sensitivity of Lys (and to a lesser extent for HRP). Alternatively, crystallinity can be induced by water vapor treatment (data not shown) of drug loaded films at 25° C. over a saturated Na2SO4 solution for 24 hours.

Data set [2] is described as follows: Release of HRP and Lysozyme from silk films, analyzed by biological potency tests (FIG. 5). In kind it is physicochemical. The conditions noted are these: for release / released protein-drug activity: methanol treated films.
The mark [3] stands for this setting: loaded films exposed to methanol.

As for Lysozyme, the protein activity entry in data set [1] was “No loss of protein activity”. In addition, the “release / released protein-drug activity” value in data set [2] (listed as Lys) was “did not release substantial amounts over time; also recorded: substantially less protein-drug activity”.
As for horseradish peroxidase [HRP], the protein activity entry in data set [1] is given as “No loss of protein activity”. Further, in data set [2] (setting [3]), the continuous release until stood at 23 days, the initial burst result is recorded as “No initial burst” and the start of release was 5 days. For the same substance, the “release / released protein-drug activity” value in data set [2] is given as “substantially less protein-drug activity”. In data set [2] (native silk films), the “initial burst, of the total loading” value is 5% and the lag phase result was “two”.
